Data reported in publication PMC8934638, “H3K36 methylation and DNA-binding both promote Ioc4 recruitment and Isw1b remodeler function”.

Legend:
[1] = target: T1, Ioc4 PWWP domain (Saccharomyces cerevisiae, UniProt Q04213 1-178); experiment: EMSA; details: 5% native PAGE (37.5:1) in 0.4x TBE, 2% glycerol, binding buffer, pH and temperature not given (as in …)
T1 sequence: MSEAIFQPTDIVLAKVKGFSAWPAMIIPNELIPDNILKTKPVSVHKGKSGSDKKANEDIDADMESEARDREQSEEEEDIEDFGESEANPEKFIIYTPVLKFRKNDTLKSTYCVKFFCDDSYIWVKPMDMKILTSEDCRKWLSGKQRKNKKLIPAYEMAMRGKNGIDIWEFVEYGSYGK

[2] = target: T2, Ioc4 full-length (Saccharomyces cerevisiae, UniProt Q04213 1-475); experiment: EMSA; details: 5% native PAGE (37.5:1) in 0.4x TBE, 2% glycerol, binding buffer, pH and temperature not given (as in …)
T2 sequence: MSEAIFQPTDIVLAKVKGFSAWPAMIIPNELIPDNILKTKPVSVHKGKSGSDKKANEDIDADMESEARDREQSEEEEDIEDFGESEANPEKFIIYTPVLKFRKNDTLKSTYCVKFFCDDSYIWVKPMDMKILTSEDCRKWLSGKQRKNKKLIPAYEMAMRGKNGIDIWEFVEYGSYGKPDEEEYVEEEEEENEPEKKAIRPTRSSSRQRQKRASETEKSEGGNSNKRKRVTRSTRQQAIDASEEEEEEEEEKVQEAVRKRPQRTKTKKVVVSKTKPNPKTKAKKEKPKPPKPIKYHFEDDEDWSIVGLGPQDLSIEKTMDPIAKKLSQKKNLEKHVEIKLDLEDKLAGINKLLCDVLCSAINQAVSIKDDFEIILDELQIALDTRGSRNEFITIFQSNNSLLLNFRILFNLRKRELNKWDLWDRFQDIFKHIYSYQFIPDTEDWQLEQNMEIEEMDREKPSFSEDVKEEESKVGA

[3] = tested on: Isw1b complex (Isw1, Ioc2, Ioc4) (Saccharomyces cerevisiae); experiment: EMSA; details: peptide-ligated H3 (T45C), 5% native PAGE (37.5:1) in 0.4x TBE, 2% glycerol, binding buffer, pH and temperature not given (as in …)
[4] = target: T1, Ioc4 PWWP domain; experiment: EMSA; EMSA; 15 fmol NCP (30 fmol unmodified NCP) per reaction; 5% native PAGE (37.5:1) in 0.4x TBE, 2% glycerol; binding buffer, pH and temperature not given (as in cited work); details: protein: recombinant; tags: N-terminal 6xHis; label: Cy5 on sense strand; blunt
[5] = target: T2, Ioc4 full-length; experiment: as above; details: protein: recombinant; tags: N-terminal 6xHis-MBP; label: Cy5 on sense strand; blunt
[6] = target: T1, Ioc4 PWWP domain; experiment: EMSA; bound equally to the AT-rich substrate; EMSA; 15 fmol NCP (30 fmol unmodified NCP) per reaction; 5% native PAGE (37.5:1) in 0.4x TBE, 2% glycerol; binding buffer, pH and temperature not given (as in cited work); details: protein: recombinant; tags: N-terminal 6xHis; label: Cy5 on sense strand; blunt
[7] = 15 fmol NCP (30 fmol unmodified NCP) per reaction
[8] = peptide-ligated H3 (T45C), K36me3, 15 fmol NCP (30 fmol unmodified NCP) per reaction
[9] = peptide-ligated H3 (T45C), K36me0, 15 fmol NCP (30 fmol unmodified NCP) per reaction

RNA:DNA hybrid gave a Kd [1, 7] of 760 nM and a Kd [2, 7] of 55 nM.

Molecule NCP H3K36me3, 147 bp 601 has a Kd ([3]; K36me3, 15 fmol NCP (30 fmol unmodified NCP) per reaction) of 4.8 nM, a Kd [1, 8] of 120 nM and a Kd [2, 8] of 6.7 nM.

Molecule NCP unmodified, 147 bp 601 has a Kd ([1]; unmodified histones, 15 fmol NCP (30 fmol unmodified NCP) per reaction) of 450 nM.

NCP H3K36me0, 147 bp 601 was tested, and the Kd ([3]; K36me0, 15 fmol NCP (30 fmol unmodified NCP) per reaction) was 57.3 nM, the Kd [1, 9] was 400 nM and the Kd [2, 9] was 11 nM.

B1: dsRNA 30 bp (AT rich) (dsRNA)
RNA 1: GGCAAGGUCGCUGUUCAAUACAUGCACAGG
RNA 2: CCUGUGCAUGUAUUGAACAGCGACCUUGCC
Work on B1 yielded a Kd [4] of 1800 nM and a Kd [5] of 56 nM.

B2: dsRNA 25 bp GC rich (dsRNA)
RNA 1: CCCGGUGCCGAGGCCGCUCAAUUGG
RNA 2: CCAAUUGAGCGGCCUCGGCACCGGG
B2: binds [6].

B3: dsDNA 30 bp (601-derived EMSA probe) (dsDNA)
DNA 1: GGCAAGGTCGCTGTTCAATACATGCACAGG
DNA 2: CCTGTGCATGTATTGAACAGCGACCTTGCC
B3 was tested, and the Kd [4] was 810 nM and the Kd [5] was 34 nM.
